How the values were obtained:
[1] = target: T1, Amyloid beta 1-42 peptide (Rattus norvegicus, UniProt P08592); experiment: Total Amyloid beta 1-42 peptide in rat brain homogenates (ELISA); type: in vivo; settings: Sprague-Dawley rats, 0.25-10 mg/kg weekly over 14 days
T1 construct: Measurement of free Amyloid beta 1-42 peptide in rat CSF; from tissue; host or cells: CSF and brain homogenate of Sprague-Dawley rats
Description: Eight-week old male albino Harlan Sprague-Dawley rats (n=8-12) received a single dose of Abet0380-GL IgG1-TM antibody by intravenous injection with a dosing vehicle of 25 mM Histidine, 7% Sucrose, 0.02% p80 surfactant, pH 6.0 at 5 ml/kg. Dosing solutions were made just before dosing. Animals were anaesthetized at the time indicated and cerebrospinal fluid (CSF) was aspirated from the cistema magna. CSF samples were centrifuged for 10 minutes at approximately 3000× g at 4° C. within 20 minutes of sampling to remove cells or debris. Samples were then frozen on dry ice and stored at −70° C. for subsequent analysis.
Animals were sacrificed by decapitation, brain tissue was dissected and Amyloid beta peptides were extracted from brain tissue in diethylamine (DEA; Fluka. Sigma. UK; cat: 31729). Briefly, frozen brain tissue was homogenized in 0.2% DEA and 50 mM NaCl (Merck, USA: cat: 1.06404.1000). Brain homogenates were ultracentrifuged at 133,000×g, for 1 hour. Recovered supernatants were neutralized to pH 8.0 with 2 M Tris-HCl (TRIZMA®-hydrochloride; Sigma, UK; cat: 93363) and stored at −70° C. until analysis. Animal experimentations were performed in accordance with relevant guidelines and regulations provided by the Swedish Board of Agriculture. The ethical permission was provided by an ethical board specialized in animal experimentations: the Stockholm Södra Animal Research Ethical Board.
Measurement of total (free and Abet0380-GL bound) Amyloid beta 1-42 peptide in rat brain homogenates was performed using modifications of the mouse Amyloid beta (1-42) colorimetric ELISA kit (Invitrogen, UK: cat: KMB3441). […] To stop the reaction, 100 μl of Stop Solution was added to each well and the plate was read within 2 hours at an absorbance of 450 nm. […]
The ability of antibody Abet0144-GL to sequester amyloid beta 1-42 was investigated in a PK-PD study in normal rats. […] Free and total amyloid beta 1-42 levels were measured using assays described above.

[2] = test system: human Abeta peptides (Abeta 1-42, Abeta 1-43, Abeta 1-16, Abeta 12-28, Abeta 17-42, Abeta pyro-3-42, Abeta pyro-11-42); experiment: HTRF competition binding experiments with panel of Abeta peptides; settings: competitor 10 uM down to 0.17 nM; antibody 0.5 nM
Description: The specificity of Abet0380-GL IgG1-TM was examined in competition binding experiments. In brief Abet0380-GL IgG1-TM (0.5 nM) was incubated (1 hr at room temperature) with a range of different concentrations (10 uM down to 0.17 nM) of a panel of full length, truncate and pyro human Abeta peptides (Abeta 1-42, Abeta 1-43, Abeta 1-16, Abeta 12-28, Abeta 17-42, Abeta pyro-3-42, or Abeta pyro-11-42).
Following the incubation between Abet0380-GL IgG1-TM and the Abeta peptides N-terminal biotin Abeta 1-42 (1.5 nM) was added followed by a europium cryptate labelled anti-human Fc antibody (0.8 nM) (CisBio Cat. No. 61HFCKLB) and streptavidin-XL^entl (5 nM) (CisBio Cat. No. 611SAXLB). The assay was then incubated for a further 2 hrs at room temperature before reading on an Envision plate reader (PerkinElmer) using a standard homogeneous time resolved fluorescence (HTRF) read protocol. In the absence of competition, the interaction of N-terminal biotin Abeta 1-42 with Abet0380-GL IgG1-TM (in complex with streptavidin-XL^entl and europium cryptate labelled anti-human Fc antibody, respectively) could then be measured via time resolved fluorescence resonance energy transfer (TR-FRET) due to the proximity of the europium cryptate donor and XL^665 acceptor fluorophores. […]

T1 sequence (P08592 672-713 limits assumed): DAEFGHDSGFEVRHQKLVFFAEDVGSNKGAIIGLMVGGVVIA

B1: Abet0380-GL IgG1-TM: germlined Abet0380; VH SEQ ID NO: 524, VL SEQ ID NO: 533; human IgG1 triple mutant format (antibody, listed as Homo sapiens, V domains shown)
VH: EVQLLESGGGLVQPGGSLRLSCAASMGNFNYQTMWWVRQAPGKGLEWVSVIGKTNENIAYADSVKGRFTISRDNSKNTLYLQMNSLRAEDTAVYYCAREWMDHSRPYYYYGMDVWGQGTLVTVSS
VL: SYELTQPPSVSVSPGQTASITCSGHNLEDKFASWYQQKPGQSPVLVIYRDDKRPSGIPERFSASNSGHTATLTISGTQAMDEADYYCSSQDTVTRVFGGGTKLTVL
modifications: human IgG1 triple mutant constant region; /note=“Abet0380-GL”
notes: germlined Abet0380; human IgG1 triple mutant format
effect on total Amyloid beta 1-42 peptide in brain tissue [1]: dose-dependent increase | inhibition of antibody : N-terminal Biotin Abeta 1-42 binding by Abeta 1-16 or Abeta 12-28 [2]: No inhibition

— patent US20190262327A1, “COMBINATION OF A BACE INHIBITOR AND AN ANTIBODY OR ANTIGEN-BINDING FRAGMENT FOR THE TREATMENT OF A DISORDER ASSOCIATED WITH THE ACCUMULATION OF AMYLOID BETA” (ASTRAZENECA AB, priority 2016, published 2019)
